Molecular target: the molecule itself
Assay: cryo-EM structure

B1: human PANX1 W74A mutant (natural protein)
chain: MAIAQLATEYVFSDFLLKEPTEPKFKGLRLELAVDKMVTCIAVGLPLLLISLAFAQEISIGTQISCFSPSSFSARQAAFVDSYCWAAVQQKNSLQSESGNLPLWLHKFFPYILLLFAILLYLPPLFWRFAAAPHICSDLKFIMEELDKVYNRAIKAAKSARDLDMRDGACSVPGVTENLGQSLWEVSESHFKYPIVEQYLKTKKNSNNLIIKYISCRLLTLIIILLACIYLGYYFSLSSLSDEFVCSIKSGILRNDSTVPDQFQCKLIAVGIFQLLSVINLVVYVLLAPVVVYTLFVPFRQKTDVLKVYEILPTFDVLHFKSEGYNDLSLYNLFLEENISEVKSYKCLKVLENIKSSGQGIDPMLLLTNLGMIKMDVVDGKTPMSAEMREEQGNQTAELQGMNIDSETKANNGEKNARQRLLDSSC
Does B1 bind?
Result: binds

Reference: PMC12698695 (Nature Communications, 2025)
